Data: patent US20130122005A1, “ANTICANCER COMBINATION THERAPY” (priority 2011, published 2013)

Molecular target: human IGF-1R (human) (UniProt P08069)
Assay: cell-based or functional assay

Chain of human IGF-1R (human) (P08069 31-1367): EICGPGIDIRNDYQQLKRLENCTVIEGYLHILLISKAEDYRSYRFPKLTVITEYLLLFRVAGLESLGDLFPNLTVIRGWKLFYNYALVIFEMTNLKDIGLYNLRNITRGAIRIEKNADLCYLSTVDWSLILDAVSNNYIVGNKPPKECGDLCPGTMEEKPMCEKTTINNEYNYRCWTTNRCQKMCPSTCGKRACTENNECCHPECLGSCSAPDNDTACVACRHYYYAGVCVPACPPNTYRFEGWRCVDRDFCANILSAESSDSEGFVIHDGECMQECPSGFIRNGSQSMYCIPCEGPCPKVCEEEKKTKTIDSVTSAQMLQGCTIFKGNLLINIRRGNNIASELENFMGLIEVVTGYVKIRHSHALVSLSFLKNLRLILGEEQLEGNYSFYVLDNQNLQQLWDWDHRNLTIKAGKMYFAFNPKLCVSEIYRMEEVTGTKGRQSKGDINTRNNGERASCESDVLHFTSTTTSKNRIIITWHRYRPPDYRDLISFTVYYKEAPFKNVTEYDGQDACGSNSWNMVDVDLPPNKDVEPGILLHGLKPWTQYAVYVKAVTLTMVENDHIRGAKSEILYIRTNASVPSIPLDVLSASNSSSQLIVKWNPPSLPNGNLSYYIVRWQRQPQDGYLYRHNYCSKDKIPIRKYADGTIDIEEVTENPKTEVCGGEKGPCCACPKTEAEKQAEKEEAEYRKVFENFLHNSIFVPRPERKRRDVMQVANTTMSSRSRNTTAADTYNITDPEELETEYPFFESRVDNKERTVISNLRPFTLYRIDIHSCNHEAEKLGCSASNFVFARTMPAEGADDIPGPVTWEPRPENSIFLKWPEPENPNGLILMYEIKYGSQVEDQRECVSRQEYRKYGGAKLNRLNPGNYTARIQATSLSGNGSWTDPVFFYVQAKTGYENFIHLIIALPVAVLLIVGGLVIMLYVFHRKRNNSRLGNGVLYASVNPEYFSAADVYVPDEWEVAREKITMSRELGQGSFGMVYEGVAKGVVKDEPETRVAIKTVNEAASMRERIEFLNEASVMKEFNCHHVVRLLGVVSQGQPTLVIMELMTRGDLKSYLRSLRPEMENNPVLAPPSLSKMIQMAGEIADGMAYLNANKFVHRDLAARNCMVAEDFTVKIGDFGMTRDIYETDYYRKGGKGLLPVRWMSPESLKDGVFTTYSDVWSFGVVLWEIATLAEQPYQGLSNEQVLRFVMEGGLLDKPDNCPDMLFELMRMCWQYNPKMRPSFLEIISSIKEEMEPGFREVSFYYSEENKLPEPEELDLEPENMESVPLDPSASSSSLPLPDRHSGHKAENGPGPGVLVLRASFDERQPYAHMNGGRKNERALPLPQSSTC

% Remaining Phosphorylation at 15 µg/mL (100 nM) Inhibitor, IGF-1 (20 ng/mL) induced IGF-1R phosphorylation: 35% | % Remaining Phosphorylation at 15 µg/mL (100 nM) Inhibitor, IGF-2 (100 ng/mL) induced IGF-1R phosphorylation: 76% | % Remaining Phosphorylation at 15 µg/mL (100 nM) Inhibitor, human serum (20%) induced IGF-1R phosphorylation: 120% | IC50, IGF-1 (20 ng/mL) induced IGF-1R phosphorylation, cell-based ELISA: 1.16 µg/mL | IC50, IGF-2 (100 ng/mL) induced IGF-1R phosphorylation, cell-based ELISA: > 15 µg/mL | IC50, human serum (20%) induced IGF-1R phosphorylation, cell-based ELISA: > 15 µg/mL
Substance: IGF-1R antibody αIR3 (Calbiochem, No. GR11L)
